Source: patent US9144594B2, “Cathepsin L mediated diseases and associated methods and products” (University of Miami, priority 2005, dated 2015)

Legend:
[1] = test system: LPS induced mouse proteinuria model; test: LPS induced mouse proteinuria model, protein in urine (prevention and reversal by dynamin gene delivery); assay type: in vivo; conditions: 2xLPS
Protocol: Next, it was examined whether gene transfer of dynR725A and dynL356Q, G358V was able to protect from LPS induced changes of podocyte FP and thus proteinuria (FIGS. 6A-B); (Table 2B). […] Whereas the application of wildtype dynamin was unable to protect from LPS induced podocyte FP effacement (data not shown) and proteinuria (0.63 mg/ml after 24 hours, p<0.05 and 1.18 mg/ml after 48 hours, p<0.04); table 2B, the co-administration of R725A together with LPS completely abolished the development of proteinuria after 24 hours (0.20 mg/ml). Podocyte FPs remained normal at this timepoint (FIG. 6B). The decline of R725A expression in podocytes was then associated with the development of proteinuria (1.25 mg/ml, 48 h). At this time point, there was noticeable podocyte FP effacement. The application of the cathepsin L resistant dynamin mutant L356Q, G358V together with LPS conferred a partial protection from proteinuria (0.47 mg/ml, P<0.05). This protection was associated with normal appearing podocyte FP (FIG. 6C). Although this protection was not as strong as the one provided by dynR725A, it was prolonged and was still present even after the second dose of LPS ([…], P<0.04). This observation argues that lower expression levels of dynL356Q, G358V are required to protect from LPS induced FP effacement but the presence of dynR725A has the most powerful protection.
Another set of experiments was carried out to study whether dynR725A and dynL356Q, G358V are also useful once there is already established podocyte damage and proteinuria (reversal experiments), (FIGS. 6C, D); (Table 2C). First LPS was injected in mice at 0 and 24 hours and the course of urinary protein loss was documented. On the peak phase of proteinuria at 48 hours after the first LPS injection, either delivery solution (control), dynR725A or dynL356Q, G358V dynamin mutants were transferred and the morphology of podocyte FP was analyzed and the degree of proteinuria was determined 10 hours later when there was strong expression of the transferred gene in podocytes. […] A dramatic reformation of podocyte FPs was also observed (FIG. 6C). The same observation was true for L356Q, G358V (FIG. 6D) which was able to reduce proteinuria from 1.20 mg/ml to 0.71 mg/ml). From the in vitro data it was determined that R725A starts to self assemble into higher order structures in the LPS setting which render dynamin assembly domain protected from cathepsin L cleavage. […] In addition, dominant activating dynR725A proves useful because despite causing podocyte damage in wildtype mice, it can resist cathepsin L cleavage by self assembly in the LPS setting and have strong activity by impairment in its GTP hydrolysis.
If dynamin is a target of CatL, then dynL356Q and dynR725A, which are resistant to CatL cleavage, might protect kidneys from LPS. In control mice, two injections of LPS led to FP effacement (FIG. 21C) and a large increase in proteinuria (FIG. 21E, Con).
Next it was examined whether dynL356Q and dynR725A can reverse already established proteinuria. LPS was injected into mice at 0 and 24 hours. At the peak of proteinuria at 48 hours, mice were injected with dynWT, dynL356Q, or dynR725A, and the degree of proteinuria was analyzed 12 hours post injection. […] The rescue could be achieved with both podocin and CMV-driven protein expression.
All animal studies were approved by the MGH Subcommittee for Research Animal Care. C57BL6 mice were obtained from Jackson Laboratory (Bar Harbor, Me.). CatL−/− mice are in a pure C57BL6 background (Nakagawa et al., Science 280, 450-453 (1998)). LPS induced mouse proteinuria model was utilized as previously described (Reiser et al., J Clin Invest 113, 1390-1397 (2004)). Rat PAN nephrosis model was induced by a single intravenous injection of PAN (180 mg/kg body wt; Sigma-Aldrich, St. Louis, Mo.) (Kim et al., Am J Physiol Renal Physiol 286, F922-935 (2004)). […]

[2] = test system: mice; test: Protein in urine after in vivo gene delivery of dynamin mutants into healthy mice (Bradford); parameters: species or system mouse; conditions: Table 5 Basic Phenotype, podocin-driven vectors
Protocol: Next, the level of urinary protein loss following gene delivery of dynamin mutants was examined (Table 2). […] The expression of K44A was associated with severe proteinuria (1.18 mg/ml) at peak gene expression time of 10 hours post injection. The reduction in gene expression was paralleled by a reduction in proteinuria (0.77 mg/ml). Gene transfer of dynR725A caused an increase in proteinuria (0.58 mg/ml). Although this was not a significant increase, it is probable that it is a consequence of the partial podocyte FP effacement seen after gene transfer of dynR725A, and due to increase in the stress fibers formation observed in cultured podocytes.
To explore whether functional dynamin is required for the maintenance of FP morphology in healthy kidneys, it was examined whether expression of dominant negative dynK44A disrupts podocyte function. […] In contrast, podocin driven expression of dynK44A, the dynamin mutant that cannot bind GTP, caused FP effacement (FIG. 21B) and proteinuria (1.1±0.26 mg/ml) at the peak of gene expression […] after gene delivery (FIGS. 21D and 25C). […] In other words, tight regulation of the life-time of the GTP-bound form of dynamin appears to be required for normal FP morphology and ultrafiltration.
CatL plasmids encoding short and long CatL (Goulet et al., Biol Chem 387, 1285-1293 (2004)), Dyn1 plasmids (pcDNA-driven) or p2.5 Podocin-driven (Moeller et al., Genesis 35, 39-42 (2003)) were introduced into mice (n>10, each construct) using the TransIT in vivo gene delivery system according to the manufacturer's instruction (Mirus Bio Corporation, Madison, Wis.). 10 and 24 h after gene delivery, proteinuria was assessed by Multistix 8 SG strips (Bayer Corporation, Elkhart, Ind.), and Bradford protein assay (Sigma, Saint Louis, Mo.). From the same urines the protein creatinine ratio was determined with Albuwell M and Creatinine Companion protein creatinine ELISA kits (Exocell Inc., Philadelphia, Pa.).

Molecule	Protein in the urine ([1]; Table 5 Prevention, t = 0) [mg/mL]	Protein in the urine ([1]; Table 5 Prevention, t = 24 h)	Protein in the urine ([1]; Table 5 Prevention, t = 48 h)	Protein in the urine ([1]; Table 5 Reversal, t = 0) [mg/mL]	Protein in the urine ([1]; Table 5 Reversal, t = 48 h) [mg/mL]	Protein in the urine ([1]; Table 5 Reversal, t = 58 h)	Protein in the urine ([2]; t = 0) [mg/mL]	Protein in the urine ([2]; t = 14 h)	Protein in the urine ([2]; t = 24 h)
WT (CMV): CMV promoter-driven wild type dyn1 vector, gene delivery	0.28 ± 0.07	0.63 ± 0.12 (1.3.2 × 10^−3) mg/ml	1.18 ± 0.23 (7.6 × 10^−5) mg/ml	0.30 ± 0.11	0.17 ± 0.20	1.10 ± 0.18 mg/mL	–	–	–
R725A (CMV): CMV promoter-driven dynR725A vector, gene delivery (protein, UniProt Q05193 1-864, looked up, variant R725A, expressed from CMV vector, CMV promoter-driven dynR725A vector, gene delivery) Dynamin-1: MGNRGMEDLIPLVNRLQDAFSAIGQNADLDLPQIAVVGGQSAGKSSVLENFVGRDFLPRGSGIVTRRPLVLQLVNATTEYAEFLHCKGKKFTDFEEVRLEIEAETDRVTGTNKGISPVPINLRVYSPHVLNLTLVDLPGMTKVPVGDQPPDIEFQIRDMLMQFVTKENCLILAVSPANSDLANSDALKVAKEVDPQGQRTIGVITKLDLMDEGTDARDVLENKLLPLRRGYIGVVNRSQKDIDGKKDITAALAAERKFFLSHPSYRHLADRMGTPYLQKVLNQQLTNHIRDTLPGLRNKLQSQLLSIEKEVEEYKNFRPDDPARKTKALLQMVQQFAVDFEKRIEGSGDQIDTYELSGGARINRIFHERFPFELVKMEFDEKELRREISYAIKNIHGIRTGLFTPDMAFETIVKKQVKKIREPCLKCVDMVISELISTVRQCTKKLQQYPRLREEMERIVTTHIREREGRTKEQVMLLIDIELAYMNTNHEDFIGFANAQQRSNQMNKKKTSGNQDEILVIRKGWLTINNIGIMKGGSKEYWFVLTAENLSWYKDDEEKEKKYMLSVDNLKLRDVEKGFMSSKHIFALFNTEQRNVYKDYRQLELACETQEEVDSWKASFLRAGVYPERVGDKEKASETEENGSDSFMHSMDPQLERQVETIRNLVDSYMAIVNKTVRDLMPKTIMHLMINNTKEFIFSELLANLYSCGDQNTLMEESAEQAQRADEMLRMYHALKEALSIIGDINTTTVSTPMPPPVDDSWLQVQSVPAGRRSPTSSPTPQRRAPAVPPARPGSRGPAPGPPPAGSALGGAPPVPSRPGASPDPFGPPPQVPSRPNRAPPGVPSRSGQASPSRPESPRPPFDL	0.17 ± 0.08	0.20 ± 0.05 mg/mL	1.25 ± 0.29 (5.0 × 10^−6) mg/ml	0.28 ± 0.10	1.15 ± 0.17	0.38 ± 0.23 (1.8 × 10^−3) mg/ml	–	–	–
K44A (podo): podocin promoter-driven dynK44A vector, gene delivery (protein, UniProt Q05193 1-864, looked up, variant K44A, podocin promoter vector, podocin promoter-driven dynK44A vector, gene delivery) Dynamin-1: MGNRGMEDLIPLVNRLQDAFSAIGQNADLDLPQIAVVGGQSAGASSVLENFVGRDFLPRGSGIVTRRPLVLQLVNATTEYAEFLHCKGKKFTDFEEVRLEIEAETDRVTGTNKGISPVPINLRVYSPHVLNLTLVDLPGMTKVPVGDQPPDIEFQIRDMLMQFVTKENCLILAVSPANSDLANSDALKVAKEVDPQGQRTIGVITKLDLMDEGTDARDVLENKLLPLRRGYIGVVNRSQKDIDGKKDITAALAAERKFFLSHPSYRHLADRMGTPYLQKVLNQQLTNHIRDTLPGLRNKLQSQLLSIEKEVEEYKNFRPDDPARKTKALLQMVQQFAVDFEKRIEGSGDQIDTYELSGGARINRIFHERFPFELVKMEFDEKELRREISYAIKNIHGIRTGLFTPDMAFETIVKKQVKKIREPCLKCVDMVISELISTVRQCTKKLQQYPRLREEMERIVTTHIREREGRTKEQVMLLIDIELAYMNTNHEDFIGFANAQQRSNQMNKKKTSGNQDEILVIRKGWLTINNIGIMKGGSKEYWFVLTAENLSWYKDDEEKEKKYMLSVDNLKLRDVEKGFMSSKHIFALFNTEQRNVYKDYRQLELACETQEEVDSWKASFLRAGVYPERVGDKEKASETEENGSDSFMHSMDPQLERQVETIRNLVDSYMAIVNKTVRDLMPKTIMHLMINNTKEFIFSELLANLYSCGDQNTLMEESAEQAQRRDEMLRMYHALKEALSIIGDINTTTVSTPMPPPVDDSWLQVQSVPAGRRSPTSSPTPQRRAPAVPPARPGSRGPAPGPPPAGSALGGAPPVPSRPGASPDPFGPPPQVPSRPNRAPPGVPSRSGQASPSRPESPRPPFDL	–	–	–	–	–	–	0.24 ± 0.08	1.09 ± 0.27 (3.0 × 10^−5) mg/ml	0.42 ± 0.16 (5.2 × 10^−3) mg/ml
WT (podo): podocin promoter-driven wild type dyn1 vector, gene delivery (protein, UniProt Q05193 1-864, looked up, podocin promoter vector, podocin promoter-driven wild type dyn1 vector, gene delivery) Dynamin-1: MGNRGMEDLIPLVNRLQDAFSAIGQNADLDLPQIAVVGGQSAGKSSVLENFVGRDFLPRGSGIVTRRPLVLQLVNATTEYAEFLHCKGKKFTDFEEVRLEIEAETDRVTGTNKGISPVPINLRVYSPHVLNLTLVDLPGMTKVPVGDQPPDIEFQIRDMLMQFVTKENCLILAVSPANSDLANSDALKVAKEVDPQGQRTIGVITKLDLMDEGTDARDVLENKLLPLRRGYIGVVNRSQKDIDGKKDITAALAAERKFFLSHPSYRHLADRMGTPYLQKVLNQQLTNHIRDTLPGLRNKLQSQLLSIEKEVEEYKNFRPDDPARKTKALLQMVQQFAVDFEKRIEGSGDQIDTYELSGGARINRIFHERFPFELVKMEFDEKELRREISYAIKNIHGIRTGLFTPDMAFETIVKKQVKKIREPCLKCVDMVISELISTVRQCTKKLQQYPRLREEMERIVTTHIREREGRTKEQVMLLIDIELAYMNTNHEDFIGFANAQQRSNQMNKKKTSGNQDEILVIRKGWLTINNIGIMKGGSKEYWFVLTAENLSWYKDDEEKEKKYMLSVDNLKLRDVEKGFMSSKHIFALFNTEQRNVYKDYRQLELACETQEEVDSWKASFLRAGVYPERVGDKEKASETEENGSDSFMHSMDPQLERQVETIRNLVDSYMAIVNKTVRDLMPKTIMHLMINNTKEFIFSELLANLYSCGDQNTLMEESAEQAQRRDEMLRMYHALKEALSIIGDINTTTVSTPMPPPVDDSWLQVQSVPAGRRSPTSSPTPQRRAPAVPPARPGSRGPAPGPPPAGSALGGAPPVPSRPGASPDPFGPPPQVPSRPNRAPPGVPSRSGQASPSRPESPRPPFDL	–	–	–	–	–	–	0.28 ± 0.06	0.54 ± 0.13 (4.2 × 10^−3) mg/ml	0.46 ± 0.16 (4.6 × 10^−2) mg/ml
